Sequences and labels used below:
B1: CE115HA000 D101A (antibody)
heavy: QVQLVESGGGVVQPGRSLRLSCAASGFTFSNAWMHWVRQAPGKGLEWVAQIKAKSNNYATYYAESVKGRFTISRDDSKNSLYLQMNSLKTEDTAVYYCRYVHYGAYYGVAAWGQGTTVTVSSASTKGPSVFPLAPSSKSTSGGTAALGCLVKDYFPEPVTVSWNSGALTSGVHTFPAVLQSSGLYSLSSVVTVPSSSLGTQTYICNVNHKPSNTKVDKKVEPKSCDKTHTCPPCPAPEAAGGPSVFLFPPKPKDTLMISRTPEVTCVVVDVSHEDPEVKFNWYVDGVEVHNAKTKPREEQYASTYRVVSVLTVLHQDWLNGKEYKCKVSNKALPAPIEKTISKAKGQPREPQVYTLPPSRCELTKNQVSLSCAVKGFYPSDIAVEWESNGQPENNYKTTPPVLDSDGSFFLVSKLTVDKSRWQQGNVFSCSVMHEALHNHYTQKSLSLSPDYKDDDDK
Fc: EPKSSDKTHTCPPCPAPELLGGPSVFLFPPKPKDTLMISRTPEVTCVVVDVSHEDPEVKFNWYVDGVEVHNAKTKPREEQYNSTYRVVSVLTVLHQDWLNGKEYKCKVSNKALPAPIEKTISKAKGQPREPQVCTLPPSRDELTKNQVSLWCLVKGFYPSDIAVEWESNGQPENNYKTTPPVLDSDGSFFLYSKLTVDKSRWQQGNVFSCSVMHEALHNRYTQKSLSLSP
light: DIVMTQSPLSLPVTPGEPASISCRSSQSLVHSNRNTYLHWYQQKPGQAPRLLIYKVSNRFSGVPDRFSGSGSGTDFTLKISRVEAEDVGVYYCGQGTQVPYTFGQGTKLEIKRTVAAPSVFIFPPSDEQLKSGTASVVCLLNNFYPREAKVQWKVDNALQSGNSQESVTEQDSKDSTYSLSSTLTLSKADYEKHKVYACEVTHQGLSSPVTKSFNRGEC
notes: one-arm antibody
B2: CE115HA000 G98T (antibody, human IgG1, kappa, L234A L235A, N297A, name in Kabat numbering)
heavy: B1 heavy with G104T, A110D
chain: B1 Fc
light: B1 light
notes: one-arm antibody
B3: CE115HA000 D101L (antibody, human IgG1, kappa, L234A L235A, N297A, name in Kabat numbering)
heavy: B1 heavy with A110L
chain: B1 Fc
light: B1 light
notes: one-arm antibody
B4: CE115HA000 D101R (antibody, human IgG1, kappa, L234A L235A, N297A, name in Kabat numbering)
heavy: B1 heavy with A110R
chain: B1 Fc
light: B1 light
notes: one-arm antibody
B5: CE115HA000 D101Q (antibody, human IgG1, kappa, L234A L235A, N297A, name in Kabat numbering)
heavy: B1 heavy with A110Q
chain: B1 Fc
light: B1 light
notes: one-arm antibody
B6: CE115HA000 G98A (antibody, human IgG1, kappa, L234A L235A, N297A, name in Kabat numbering)
heavy: B1 heavy with G104A, A110D
chain: B1 Fc
light: B1 light
notes: one-arm antibody
B7: CE115HA000 D101K (antibody, human IgG1, kappa, L234A L235A, N297A, name in Kabat numbering)
heavy: B1 heavy with A110K
chain: B1 Fc
light: B1 light
notes: one-arm antibody
B8: CE115HA000 G98S (antibody, human IgG1, kappa, L234A L235A, N297A, name in Kabat numbering)
heavy: B1 heavy with G104S, A110D
chain: B1 Fc
light: B1 light
notes: one-arm antibody
B9: CE115HA000 D101G (antibody, human IgG1, kappa, L234A L235A, N297A, name in Kabat numbering)
heavy: B1 heavy with A110G
chain: B1 Fc
light: B1 light
notes: one-arm antibody
B10: CE115HA000 E61D (antibody, human IgG1, kappa, L234A L235A, N297A, name in Kabat numbering)
heavy: B1 heavy with E64D, A110D
chain: B1 Fc
light: B1 light
notes: one-arm antibody
B11: CE115HA000 D101V (antibody, human IgG1, kappa, L234A L235A, N297A, name in Kabat numbering)
heavy: B1 heavy with A110V
chain: B1 Fc
light: B1 light
notes: one-arm antibody
B12: CE115HA000 G98Q (antibody, human IgG1, kappa, L234A L235A, N297A, name in Kabat numbering)
heavy: B1 heavy with G104Q, A110D
chain: B1 Fc
light: B1 light
notes: one-arm antibody
B13: CE115HA000 G98R (antibody, human IgG1, kappa, L234A L235A, N297A, name in Kabat numbering)
heavy: B1 heavy with G104R, A110D
chain: B1 Fc
light: B1 light
notes: one-arm antibody
B14: CE115HA000 D101M (antibody, human IgG1, kappa, L234A L235A, N297A, name in Kabat numbering)
heavy: B1 heavy with A110M
chain: B1 Fc
light: B1 light
notes: one-arm antibody
B15: CE115HA000 G98D (antibody, human IgG1, kappa, L234A L235A, N297A, name in Kabat numbering)
heavy: B1 heavy with G104D, A110D
chain: B1 Fc
light: B1 light
notes: one-arm antibody
B16: CE115HA000 D101T (antibody, human IgG1, kappa, L234A L235A, N297A, name in Kabat numbering)
heavy: B1 heavy with A110T
chain: B1 Fc
light: B1 light
notes: one-arm antibody
B17: CE115HA000 G65E (antibody, human IgG1, kappa, L234A L235A, N297A, name in Kabat numbering)
heavy: B1 heavy with G68E, A110D
chain: B1 Fc
light: B1 light
notes: one-arm antibody
B18: CE115HA000 D101S (antibody, human IgG1, kappa, L234A L235A, N297A, name in Kabat numbering)
heavy: B1 heavy with A110S
chain: B1 Fc
light: B1 light
notes: one-arm antibody
B19: CE115HA000 G98H (antibody, human IgG1, kappa, L234A L235A, N297A, name in Kabat numbering)
heavy: B1 heavy with G104H, A110D
chain: B1 Fc
light: B1 light
notes: one-arm antibody
B20: CE115HA000 D101F (antibody, human IgG1, kappa, L234A L235A, N297A, name in Kabat numbering)
heavy: B1 heavy with A110F
chain: B1 Fc
light: B1 light
notes: one-arm antibody
B21: CE115HA000 E61Q (antibody, human IgG1, kappa, L234A L235A, N297A, name in Kabat numbering)
heavy: B1 heavy with E64Q, A110D
chain: B1 Fc
light: B1 light
notes: one-arm antibody
B22: CE115HA000 D101P (antibody, human IgG1, kappa, L234A L235A, N297A, name in Kabat numbering)
heavy: B1 heavy with A110P
chain: B1 Fc
light: B1 light
notes: one-arm antibody
B23: CE115HA000 D101H (antibody, human IgG1, kappa, L234A L235A, N297A, name in Kabat numbering)
heavy: B1 heavy with A110H
chain: B1 Fc
light: B1 light
notes: one-arm antibody
B24: CE115HA000 G98K (antibody, human IgG1, kappa, L234A L235A, N297A, name in Kabat numbering)
heavy: B1 heavy with G104K, A110D
chain: B1 Fc
light: B1 light
notes: one-arm antibody
B25: CE115HA000 G65D (antibody, human IgG1, kappa, L234A L235A, N297A, name in Kabat numbering)
heavy: B1 heavy with G68D, A110D
chain: B1 Fc
light: B1 light
notes: one-arm antibody
B26: CE115HA000 E61P (antibody, human IgG1, kappa, L234A L235A, N297A, name in Kabat numbering)
heavy: B1 heavy with E64P, A110D
chain: B1 Fc
light: B1 light
notes: one-arm antibody
B27: CE115HA000 D101N (antibody, human IgG1, kappa, L234A L235A, N297A, name in Kabat numbering)
heavy: B1 heavy with A110N
chain: B1 Fc
light: B1 light
notes: one-arm antibody
B28: CE115HA000 E61A (antibody, human IgG1, kappa, L234A L235A, N297A, name in Kabat numbering)
heavy: B1 heavy with E64A, A110D
chain: B1 Fc
light: B1 light
notes: one-arm antibody
B29: CE115HA000 F29V (antibody, human IgG1, kappa, L234A L235A, N297A, name in Kabat numbering)
heavy: B1 heavy with F29V, A110D
chain: B1 Fc
light: B1 light
notes: one-arm antibody
B30: CE115HA000 D101Y (antibody, human IgG1, kappa, L234A L235A, N297A, name in Kabat numbering)
heavy: B1 heavy with A110Y
chain: B1 Fc
light: B1 light
notes: one-arm antibody
B31: CE115HA000 D101I (antibody, human IgG1, kappa, L234A L235A, N297A, name in Kabat numbering)
heavy: B1 heavy with A110I
chain: B1 Fc
light: B1 light
notes: one-arm antibody
B32: CE115HA000 G98P (antibody, human IgG1, kappa, L234A L235A, N297A, name in Kabat numbering)
heavy: B1 heavy with G104P, A110D
chain: B1 Fc
light: B1 light
notes: one-arm antibody

Residue numbers refer to the chain shown, from its start.

The target in this experiment is T1, CD3 epsilon homodimer protein (UniProt P07766 23-126).
T1 construct: also called CD3 (CD3 epsilon)
T1 sequence (P07766 23-126): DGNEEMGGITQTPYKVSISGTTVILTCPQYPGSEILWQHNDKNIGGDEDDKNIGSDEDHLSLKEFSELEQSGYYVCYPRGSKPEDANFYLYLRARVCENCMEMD
As to the kind of experiment: SPR, CD3 epsilon homodimer on chip, one-arm antibody as analyte.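 Also: surface plasmon resonance at 25 °C with CD3 epsilon homodimer amine-coupled to a CM4 sensor chip, antibody injected as analyte, HBS-EP+ as running buffer.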 In general terms: Surface plasmon resonance follows binding to a sensor surface in real time, without labels.
As to B1, the “KD ratio (KD of CE115HA000/KD of altered form)” value (shortened to “KD ratio”) came out at 0.86. For B2 the value was 0.93. As to B3, the “KD ratio” value was determined as 0.71. Take B4: the “KD ratio” value came out at 5.56. For B5 the value was 3.55; for B6, 0.98; for B7, 4.37. Consider B8, for which the “KD ratio” value came out at 0.98.

As to B9, the “KD ratio” value worked out at 3.16. On to B10, for which the “KD ratio” value came to 0.9. For B11 the value was 1.18. Then B12, with 1.04. For B13, the “KD ratio” value came to 4.69.

B14: the “KD ratio” value turned out to be 1.94. For B15 the value was 2.36; for B16, 0.62. B17: the “KD ratio” value came to 0.61. With B18, the “KD ratio” value was determined as 0.91. B19: the “KD ratio” value is 1.14. For B20, the “KD ratio” value turned out to be 0.73. For B21 the value was 0.65; for B22, 43.4; for B23, 0.91. As to B24, the “KD ratio” value was determined as 4.85. Turning to B25, the “KD ratio” value amounted to 0.61. Then B26, with 0.82; and B27, with 2.28. For the molecule B28, the “KD ratio” value is 0.94.

For B29, the “KD ratio” value stood at 2.94. B30: the “KD ratio” value was determined as 0.97. For the molecule B31, the “KD ratio” value turned out to be 1.73. B32: the “KD ratio” value worked out at 0.88.

The values above are taken from patent US20210388087A1 (Chugai, published 2021).
